Article PMC5454376 (2017)

B1: Human His-Gαi3 WT [human] / Fluorescein-labelled RGS12 GoLoco peptide (residues 1,185–1,221) [modified: 5,6-carboxyfluorescein coupled to the resin-bound peptide after chain elongation; 5,6-carboxyfluorescein coupled to the resin-bound … (parent complex)
chain 1: MGCTLSAEDKAAVERSKMIDRNLREDGEKAAKEVKLLLLGAGESGKSTIVKQMKIIHEDGYSEDECKQYKVVVYSNTIQSIIAIIRAMGRLKIDFGEAARADDARQLFVLAGSAEEGVMTPELAGVIKRLWRDGGVQACFSRSREYQLNDSASYYLNDLDRISQSNYIPTQQDVLRTRVKTTGIVETHFTFKDLYFKMFDVGGQRSERKKWIHCFEGVTAIIFCVALSDYDLVLAEDEEMNRMHESMKLFDSICNNKWFTETSIILFLNKKDLFEEKIKRSPLTICYPEYTGSNTYEEAAAYIQCQFEDLNRRKDTKEIYTHFTCATDTKNVQFVFDAVTDVIIKNNLKECGLY
chain 2: DEAEEFFELISKAQSNRADDQRGLLRKEDLVLPEFLR
B2: Human His-Gαi3 WT [human] / Fluorescein-labelled GIV peptide (residues 1,671–1,701) [modified: 5,6-carboxyfluorescein coupled to the resin-bound peptide after chain elongation; 5,6-carboxyfluorescein coupled to the resin-bound peptide … (parent complex)
chain 1: B1 chain 1
chain 2: KTGSPGSEVVTLQQFLEESNKLTSVQIKSSS

Variants of: B1
Assay: fluorescence polarisation

Row | Variant | Kd
1 | chain 1 MGCTLSAEDKAAVERSKMIDRNLREDGEKAAKEVKLLLLGAGESGKSTIVKQMKIIHEDGYSEDECKQYKVVVYSNTIQSIIAIIRAMGRLKIDFGEAARADDARQLFVLAGSAEEGVMTPELAGVIKRLWRDGGVQACFSRSREYQLNDSASYYLNDLDRISQSNYIPTQQDVLRTRVKTTGIVETHFTFKDLYFKMFDVGGQRSERKKWIHCFEGVTAIIFCVALSDYDLVLAEDEEMNRMHESMKLFDSICNNKWATETSIILFLNKKDLFEEKIKRSPLTICYPEYTGSNTYEEAAAYIQCQFEDLNRRKDTKEIYTHFTCATDTKNVQFVFDAVTDVIIKNNLKECGLY [chain 1 F259A] | 187 nM
2 | chain 1 MGCTLSAEDKAAVERSKMIDRNLREDGEKAAKEVKALLLGAGESGKSTIVKQMKIIHEDGYSEDECKQYKVVVYSNTIQSIIAIIRAMGRLKIDFGEAARADDARQLFVLAGSAEEGVMTPELAGVIKRLWRDGGVQACFSRSREYQLNDSASYYLNDLDRISQSNYIPTQQDVLRTRVKTTGIVETHFTFKDLYFKMFDVGGQRSERKKWIHCFEGVTAIIFCVALSDYDLVLAEDEEMNRMHESMKLFDSICNNKWFTETSIILFLNKKDLFEEKIKRSPLTICYPEYTGSNTYEEAAAYIQCQFEDLNRRKDTKEIYTHFTCATDTKNVQFVFDAVTDVIIKNNLKECGLY [chain 1 L36A] | 119 nM
3 | chain 1 MGCTLSAEDKAAVERSKMIDRNLREDGEKAAKEVKLLLLGAGESGKSTIVKQMKIIHEDGYSEDECKQYKVVVYSNTIQSIIAIIRAMGRLKIDFGEAARADDARQLFVLAGSAEEGVMTPELAGVIKRLWRDGGVQACFSRSREYQLNDSASYYLNDLDRISQSNYIPTQQDVLRTRVKTTGIVETHFTFKDLYFKMFDVGGQRSERKKWIHCFEGVTAIIFCVALSDYDLVLAEDEEMNRMHESMKLFDSICNAKWFTETSIILFLNKKDLFEEKIKRSPLTICYPEYTGSNTYEEAAAYIQCQFEDLNRRKDTKEIYTHFTCATDTKNVQFVFDAVTDVIIKNNLKECGLY [chain 1 N256A] | 77 nM
4 | chain 1 MGCTLSAEDKAAVERSKMIDRNLREDGEKAAKEVKLLLLGAGESGKSTIVKQMKIIHEDGYSEDECKQYKVVVYSNTIQSIIAIIRAMGRLKIDFGEAARADDARQLFVLAGSAEEGVMTPELAGVIKRLWRDGGVQACFSRSREYQLNDSASYYLNDLDRISQSNYIPTQQDVLRTRVKTTGIVETHFTFKDLYFKMFDVGGQRSERKKWIHCFEGVTAIIFCVALSDYDLVLAEDEEMNRMHESMKLFDSICNEKWFTETSIILFLNKKDLFEEKIKRSPLTICYPEYTGSNTYEEAAAYIQCQFEDLNRRKDTKEIYTHFTCATDTKNVQFVFDAVTDVIIKNNLKECGLY [chain 1 N256E] | 314 nM
5 | chain 1 MGCTLSAEDKAAVERSKMIDRNLREDGEKAAKEVKLALLGAGESGKSTIVKQMKIIHEDGYSEDECKQYKVVVYSNTIQSIIAIIRAMGRLKIDFGEAARADDARQLFVLAGSAEEGVMTPELAGVIKRLWRDGGVQACFSRSREYQLNDSASYYLNDLDRISQSNYIPTQQDVLRTRVKTTGIVETHFTFKDLYFKMFDVGGQRSERKKWIHCFEGVTAIIFCVALSDYDLVLAEDEEMNRMHESMKLFDSICNNKWFTETSIILFLNKKDLFEEKIKRSPLTICYPEYTGSNTYEEAAAYIQCQFEDLNRRKDTKEIYTHFTCATDTKNVQFVFDAVTDVIIKNNLKECGLY [chain 1 L37A] | 80 nM
6 | chain 1 MGCTLSAEDKAAVERSKMIDRNLREDGEKAAKEVKLLLLGAGESGKSTIVKQMKIIHEDGYSEDECKQYKVVVYSNTIQSIIAIIRAMGRLKIDFGEAARADDARQLFVLAGSAEEGVMTPELAGVIKRLWRDGGVQACFSRSREYQLNDSASYYLNDLDRISQSNYIPTQQDVLRTRVKTTGIVETHFTFKDLYFKMFDVGGQRSERKKWIHCFEGVTAIIFCVALSDYDLVLAEDEEMNRMHESMKLFDSICNNKFFTETSIILFLNKKDLFEEKIKRSPLTICYPEYTGSNTYEEAAAYIQCQFEDLNRRKDTKEIYTHFTCATDTKNVQFVFDAVTDVIIKNNLKECGLY [chain 1 W258F] | 63 nM

Results, then the variant that gave them:

Row | Kd | Variant
7 | 176 nM | chain 1 MGCTLSAEDKAAVERSKMIDRNLREDGEKAAKEVKLLLAGAGESGKSTIVKQMKIIHEDGYSEDECKQYKVVVYSNTIQSIIAIIRAMGRLKIDFGEAARADDARQLFVLAGSAEEGVMTPELAGVIKRLWRDGGVQACFSRSREYQLNDSASYYLNDLDRISQSNYIPTQQDVLRTRVKTTGIVETHFTFKDLYFKMFDVGGQRSERKKWIHCFEGVTAIIFCVALSDYDLVLAEDEEMNRMHESMKLFDSICNNKWFTETSIILFLNKKDLFEEKIKRSPLTICYPEYTGSNTYEEAAAYIQCQFEDLNRRKDTKEIYTHFTCATDTKNVQFVFDAVTDVIIKNNLKECGLY [chain 1 L39A]
8 | 104 nM | chain 1 MGCTLSAEDKAAVERSKMIDRNLREDGEKAAKEVKLLLLGAGESGKSTIVKQMKIIHEDGYSEDECKQYKVVVYSNTIQSIIAIIRAMGRLKIDFGEAARADDARQLFVLAGSAEEGVMTPELAGVIKRLWRDGGVQACFSRSREYQLNDSASYYLNDLDRISQSNYIPTQQDVLRTRVKTTGIVETHFTFKDLYFKMFDVGGQRSERKKWIHCFEGATAIIFCVALSDYDLVLAEDEEMNRMHESMKLFDSICNNKWFTETSIILFLNKKDLFEEKIKRSPLTICYPEYTGSNTYEEAAAYIQCQFEDLNRRKDTKEIYTHFTCATDTKNVQFVFDAVTDVIIKNNLKECGLY [chain 1 V218A]
9 | 83 nM | chain 1 MGCTLSAEDKAAVERSKMIDRNLREDGEKAAKEVKLLLLGAGESGKSTIVKQMKIIHEDGYSEDECKQYKVVVYSNTIQSIIAIIRAMGRLKIDFGEAARADDARQLFVLAGSAEEGVMTPELAGVIKRLWRDGGVQACFSRSREYQLNDSASYYLNDLDRISQSNYIPTQQDVLRTRVKTTGAVETHFTFKDLYFKMFDVGGQRSERKKWIHCFEGVTAIIFCVALSDYDLVLAEDEEMNRMHESMKLFDSICNNKWFTETSIILFLNKKDLFEEKIKRSPLTICYPEYTGSNTYEEAAAYIQCQFEDLNRRKDTKEIYTHFTCATDTKNVQFVFDAVTDVIIKNNLKECGLY [chain 1 I184A]
10 | 551 nM | chain 1 MGCTLSAEDKAAVERSKMIDRNLREDGEKAAKEVKLLLLGAGESGKSTIVKQMKIIHEDGYSEDECKQYKVVVYSNTIQSIIAIIRAMGRLKIDFGEAARADDARQLFVLAGSAEEGVMTPELAGVIKRLWRDGGVQACFSRSREYQLNDSASYYLNDLDRISQSNYIPTQQDVLRTRVKTTGIVETHFTFKDLYFKMFDVGGQRSERKKWIHCAEGVTAIIFCVALSDYDLVLAEDEEMNRMHESMKLFDSICNNKWFTETSIILFLNKKDLFEEKIKRSPLTICYPEYTGSNTYEEAAAYIQCQFEDLNRRKDTKEIYTHFTCATDTKNVQFVFDAVTDVIIKNNLKECGLY [chain 1 F215A]
11 | 152 nM | chain 1 MGCTLSAEDKAAVERSKMIDRNLREDGEKAAKEVALLLLGAGESGKSTIVKQMKIIHEDGYSEDECKQYKVVVYSNTIQSIIAIIRAMGRLKIDFGEAARADDARQLFVLAGSAEEGVMTPELAGVIKRLWRDGGVQACFSRSREYQLNDSASYYLNDLDRISQSNYIPTQQDVLRTRVKTTGIVETHFTFKDLYFKMFDVGGQRSERKKWIHCFEGVTAIIFCVALSDYDLVLAEDEEMNRMHESMKLFDSICNNKWFTETSIILFLNKKDLFEEKIKRSPLTICYPEYTGSNTYEEAAAYIQCQFEDLNRRKDTKEIYTHFTCATDTKNVQFVFDAVTDVIIKNNLKECGLY [chain 1 K35A]
12 | 86 nM | chain 1 MGCTLSAEDKAAVERSKMIDRNLREDGEKAAKEVKLLLLGAGESGKSTIVKQMKIIHEDGYSEDECKQYKVVVYSNTIQSIIAIIRAMGRLKIDFGEAARADDARQLFVLAGSAEEGVMTPELAGVIKRLWRDGGVQACFSRSREYQLNDSASYYLNDLDRISQSNYIPTQQDVLRTRVKTTGIVETHFTFKDLYFKMFDVGGQRSERKKWIHCFEGVTAIIFCVALSDYDLVLAEDEEMNRMHESMKLFDSICNNAWFTETSIILFLNKKDLFEEKIKRSPLTICYPEYTGSNTYEEAAAYIQCQFEDLNRRKDTKEIYTHFTCATDTKNVQFVFDAVTDVIIKNNLKECGLY [chain 1 K257A]

Variants of: B2
Assay: fluorescence polarisation

Row | Kd | Variant
13 | 800 nM | chain 1 MGCTLSAEDKAAVERSKMIDRNLREDGEKAAKEVKLLLLGAGESGKSTIVKQMKIIHEDGYSEDECKQYKVVVYSNTIQSIIAIIRAMGRLKIDFGEAARADDARQLFVLAGSAEEGVMTPELAGVIKRLWRDGGVQACFSRSREYQLNDSASYYLNDLDRISQSNYIPTQQDVLRTRVKTTGIVETHFTFKDLYFKMFDVGGQRSERKKWIHCFEGVTAIIFCVALSDYDLVLAEDEEMNRMHESMKLFDSICNNKWFTETSIILFLNKKDLFEEKIKRSPLTICYPEYTGSNTYEEAAAYIQCQFEDLNRAKDTKEIYTHFTCATDTKNVQFVFDAVTDVIIKNNLKECGLY [chain 1 R313A]
14 | 590 nM | chain 1 MGCTLSAEDKAAVERSKMIDRNLREDGEKAAKEVKLLLLGAGESGKSTIVKQMKIIHEDGYSEDECKQYKVVVYSNTIQSIIAIIRAMGRLKIDFGEAARADDARQLFVLAGSAEEGVMTPELAGVIKRLWRDGGVQACFSRSREYQLNDSASYYLNDLDRISQSNYIPTQQDVLRTRVKTTGIVETHFTFKDLYFKMFDVGGQRSERKKWIHCFEGVTAIIFCVALSDYDLVLAEDEEMNRMHESMKLFDSICNNKWFTETSIILFLNKKDLFEEKIKRSPLTICYPEYTGSNTYEEAAAYIQCQFEDLNRRKDTAEIYTHFTCATDTKNVQFVFDAVTDVIIKNNLKECGLY [chain 1 K317A]
15 | 510 nM | chain 1 MGCTLSAEDKAAVERSKMIDRNLREDGEKAAKEVKLLLLGAGESGKSTIVKQMKIIHEDGYSEDECKQYKVVVYSNTIQSIIAIIRAMGRLKIDFGEAARADDARQLFVLAGSAEEGVMTPELAGVIKRLWRDGGVQACFSRSREYQLNDSASYYLNDLDRISQSNYIPTQQDVLRTRVKTTGIVETHFTFKDLYFKMFDVGGQRSERKKWIHCFEGVTAIIFCVALSDYDLVLAEDEEMNRMHESMKLFDSICNNKWFTETSIILFLNKKDLFEEKIKRSPLTICYPEYTGSNTYEEAAAYIQCQFEDLNRRKDTWEIYTHFTCATDTKNVQFVFDAVTDVIIKNNLKECGLY [chain 1 K317W]

Variants of: B2
Assay: fluorescence polarisation
Remark: another data set of the same source

Row | Kd | Variant
16 | 1910 nM | chain 1 MGCTLSAEDKAAVERSKMIDRNLREDGEKAAKEVKLLLLGAGESGKSTIVKQMKIIHEDGYSEDECKQYKVVVYSNTIQSIIAIIRAMGRLKIDFGEAARADDARQLFVLAGSAEEGVMTPELAGVIKRLWRDGGVQACFSRSREYQLNDSASYYLNDLDRISQSNYIPTQQDVLRTRVKTTGAVETHFTFKDLYFKMFDVGGQRSERKKWIHCFEGVTAIIFCVALSDYDLVLAEDEEMNRMHESMKLFDSICNNKWFTETSIILFLNKKDLFEEKIKRSPLTICYPEYTGSNTYEEAAAYIQCQFEDLNRRKDTKEIYTHFTCATDTKNVQFVFDAVTDVIIKNNLKECGLY [chain 1 I184A]
